Experimental data: patent US10450368

What was measured:
[1] = target: HIV-1 CH505 transmitted/founder gp120 Env (HIV-1); test: direct-binding ELISA (OD450), panel 'CH505.TF gp120'
[2] = target: CH505.TF mutant gp120 M8 (HIV-1); test: direct-binding ELISA (OD450), panel 'CH505.TF gp120 M8'
[3] = target: CH505.TF mutant gp120 M6 (HIV-1); test: direct-binding ELISA (OD450), panel 'CH505.TF gp120 M6'
Con S gp120 = test: direct-binding ELISA (OD450), panel 'Con S gp120'
Centromere B [4] = target: Centromere B (UniProt P07199); test: AtheNA, Ab 25 ug/ml
Centromere B [5] = target: Centromere B (UniProt P07199); test: AtheNA, Ab 12.5 ug/ml
Centromere B [6] = target: Centromere B (UniProt P07199); test: AtheNA, Ab 6.25 ug/ml
[7] = target: B41 SOSIP.664 gp140 trimer (HIV-1); test: negative stain EM, 10 molar excess of Fab
[8] = target: BG505 SOSIP.664 gp140 trimer (HIV-1); test: negative stain EM, 10 molar excess of Fab
Centromere B [9] = target: Centromere B (UniProt P07199); test: AtheNA, Ab 50 ug/ml
Jo-1 [10] = target: Jo-1 (UniProt P12081); test: AtheNA, Ab 50 ug/ml
Jo-1 [11] = target: Jo-1 (UniProt P12081); test: AtheNA, Ab 25 ug/ml
AtheNA, Ab 25 ug/ml = substrate: SSB (UniProt P05455); test: AtheNA, Ab 25 ug/ml
AtheNA, Ab 12.5 ug/ml = substrate: SSB (UniProt P05455); test: AtheNA, Ab 12.5 ug/ml
AtheNA, Ab 6.25 ug/ml = substrate: SSB (UniProt P05455); test: AtheNA, Ab 6.25 ug/ml
Jo-1 [12] = target: Jo-1 (UniProt P12081); test: AtheNA, Ab 12.5 ug/ml
Jo-1 [13] = target: Jo-1 (UniProt P12081); test: AtheNA, Ab 6.25 ug/ml
AtheNA, Ab 50 ug/ml = substrate: SSB (UniProt P05455); test: AtheNA, Ab 50 ug/ml

Sequence of SSB (P05455 whole entry): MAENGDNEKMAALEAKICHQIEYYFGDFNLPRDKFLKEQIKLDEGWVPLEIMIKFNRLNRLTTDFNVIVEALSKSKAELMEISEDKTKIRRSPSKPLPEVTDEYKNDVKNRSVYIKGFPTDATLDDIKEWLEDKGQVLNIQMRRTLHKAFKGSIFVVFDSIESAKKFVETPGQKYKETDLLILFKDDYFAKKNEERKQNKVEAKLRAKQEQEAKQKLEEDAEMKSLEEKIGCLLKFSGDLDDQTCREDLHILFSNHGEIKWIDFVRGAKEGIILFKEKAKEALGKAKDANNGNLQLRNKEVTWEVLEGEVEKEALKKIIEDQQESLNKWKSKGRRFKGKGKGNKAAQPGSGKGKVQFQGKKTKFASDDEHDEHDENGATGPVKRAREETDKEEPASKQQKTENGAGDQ
Sequence of Centromere B (P07199 whole entry): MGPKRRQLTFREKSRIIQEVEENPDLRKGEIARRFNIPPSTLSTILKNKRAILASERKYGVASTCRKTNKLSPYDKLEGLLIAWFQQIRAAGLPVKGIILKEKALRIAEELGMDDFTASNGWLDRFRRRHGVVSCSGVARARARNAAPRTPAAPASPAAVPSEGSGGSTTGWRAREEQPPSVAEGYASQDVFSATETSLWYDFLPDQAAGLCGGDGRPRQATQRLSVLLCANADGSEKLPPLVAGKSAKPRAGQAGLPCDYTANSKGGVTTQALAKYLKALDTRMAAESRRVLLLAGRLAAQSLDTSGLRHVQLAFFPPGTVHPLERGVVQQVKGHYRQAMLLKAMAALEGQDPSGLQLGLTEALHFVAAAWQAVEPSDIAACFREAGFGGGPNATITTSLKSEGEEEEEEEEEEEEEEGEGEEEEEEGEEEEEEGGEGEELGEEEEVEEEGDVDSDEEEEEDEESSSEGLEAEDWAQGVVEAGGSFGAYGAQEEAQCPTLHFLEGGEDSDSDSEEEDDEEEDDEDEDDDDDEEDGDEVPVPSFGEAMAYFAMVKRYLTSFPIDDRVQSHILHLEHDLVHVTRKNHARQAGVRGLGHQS
Sequence of Jo-1 (P12081 whole entry): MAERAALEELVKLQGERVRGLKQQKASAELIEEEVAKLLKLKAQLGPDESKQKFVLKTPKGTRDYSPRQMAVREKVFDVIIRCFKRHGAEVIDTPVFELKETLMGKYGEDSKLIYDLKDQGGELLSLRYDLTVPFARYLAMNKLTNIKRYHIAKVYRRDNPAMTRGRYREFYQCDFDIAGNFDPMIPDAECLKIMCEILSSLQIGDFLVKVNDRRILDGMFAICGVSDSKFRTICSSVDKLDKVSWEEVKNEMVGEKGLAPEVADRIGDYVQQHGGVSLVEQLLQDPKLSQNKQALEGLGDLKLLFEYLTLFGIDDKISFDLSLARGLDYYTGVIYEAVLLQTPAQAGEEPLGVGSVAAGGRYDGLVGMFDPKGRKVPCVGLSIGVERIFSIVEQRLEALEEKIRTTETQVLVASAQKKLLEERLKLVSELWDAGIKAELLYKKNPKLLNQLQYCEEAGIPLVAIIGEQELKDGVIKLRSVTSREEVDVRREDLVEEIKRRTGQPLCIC

B1: CH492 (antibody, V domains shown)
VH: QVQLVQSGAAVKKPGASVRVSCKASGYTFTSSHIHWVRQAPGQGPEWMGMVDPRFGRPTYAQKFQGRVAMTRDIYTSTVYMDLRSLKSEDTAIYFCVRNAETEGSLLHIEYWGQGTRVTVSS
VL: EIVLTQSPATLSVSPGERATLSCRASQSVRSNIAWYQQKPGQAPRLLIHGASTRATGIPGRFSGSGSGPEFTLAISSVQSEDFAVYYCQQYNDWWTFGQGTKVEIK
EC50 (read off the curve) [1]: 0.5 µg/mL
EC50 (read off the curve) [2]: 6 µg/mL
EC50 (read off the curve) [3]: 0.5 µg/mL
EC50 (read off the curve) (Con S gp120): 5 µg/mL

B2: CH241 (antibody, V domains shown)
VH: QVQLVQSGAAVKKPGASVRVSCKASGYTFTSSHIHWVRQAPGQGPEWMGMIDPSVGRPTTAGKFQGRVTMTRDRYTSTAYMDLSSLRSEDTAVYYCARSVETTGSLLYFDYWGQGTLITVSS
VL: EIVLTQSPATLSVSPGERATLSCRASQSVRSNIAWYQQKPGQAPRLLIHGASTRATGIPGRFSGSGSGPEFTLAISSVQSEDFAVYYCQQYNDWWTFGQGTKVEIK
AtheNA signal (relative luminescence units) (Centromere B [4]): 14
AtheNA signal (relative luminescence units) (Centromere B [5]): 8
AtheNA signal (relative luminescence units) (Centromere B [6]): 6

B3: CH235.12 Fab (Fab, V domains shown)
VH: QVRLAQYGGGVKRLGATMTLSCVASGYTFNDYYIHWVRQAPGQGFELLGYIDPANGRPDYAGALRERLSFYRDKSMETLYMDLRSLRYDDTAMYYCVRNVGTAGSLLHYDHWGSGSPVIVSS
VL: EIVLTQSPATLSASPGERVTLTCRASRSVRNNVAWYQHKGGQSPRLLIYDASTRAAGVPARFSGSASGTEFTLAISNLESEDFTVYFCLQYNNWWTFGQGTRVDIK
stoichiometry (Fabs per trimer) (Fabs per trimer) [7]: 3
stoichiometry (Fabs per trimer) (Fabs per trimer) [8]: 3

B4: CH235 (antibody, V domains shown)
VH: QVQLVQSGAEVKKPGASVTVSCQASGYTFTNYYVHWVRQAPGQGLQLMGWIDPSWGRTNYAQNFQGRITMTRDTSTSTVYMEMRSLRSEDTAVYYCARNVATEGSLLHYDYWGQGTLVTVSA
VL: EIVLTQSPATLSVSPGERATLSCRASQSVRSNLAWYQQRPGQAPRLLIYGTSTRATGVPARFSGRGSGTEFTLAISSMQSEDFAVYLCLQYNNWWTFGQGTKVEIK
AtheNA signal (relative luminescence units) (Centromere B [4]): 6
AtheNA signal (relative luminescence units) (Centromere B [5]): 5
AtheNA signal (relative luminescence units) (Centromere B [6]): 3

B5: CH235 Fab (Fab, V domains shown)
VH: QVQLVQSGAEVKKPGASVTVSCQASGYTFTNYYVHWVRQAPGQGLQLMGWIDPSWGRTNYAQNFQGRITMTRDTSTSTVYMEMRSLRSEDTAVYYCARNVATEGSLLHYDYWGQGTLVTVSA
VL: EIVLTQSPATLSVSPGERATLSCRASQSVRSNLAWYQQRPGQAPRLLIYGTSTRATGVPARFSGRGSGTEFTLAISSMQSEDFAVYLCLQYNNWWTFGQGTKVEIK
stoichiometry (Fabs per trimer) (Fabs per trimer) [7]: 2
stoichiometry (Fabs per trimer) (Fabs per trimer) [8]: 1

B6: CH236 (antibody, V domains shown)
VH: QVQLVQSGAAVKRPGASVTISCRASGYTFTTYYIHWVRQAPGQRLELMGMIDPSRGRTDYAQKFQGRVTMSRDTSTSTLYMELRSLRPDDTALYYCVRNVGTEGSLLHYDYWGQGTLVTVSS
VL: EIVLTQSPATLSVSPGERVTLSCRASQSVRNNLAWYRQKRGQAPRLLIYGASTRATGIPARFSGSGSGTEFTLTISSMQSEDFAVYYCQQYNNWWTFGQGTKVEIK
AtheNA signal (relative luminescence units) (Centromere B [9]): 84
AtheNA signal (relative luminescence units) (Jo-1 [10]): 145
AtheNA signal (relative luminescence units) (Centromere B [4]): 129
AtheNA signal (relative luminescence units) (Jo-1 [11]): 72
AtheNA signal (relative luminescence units) (AtheNA, Ab 25 ug/ml): 175
AtheNA signal (relative luminescence units) (AtheNA, Ab 12.5 ug/ml): 63
AtheNA signal (relative luminescence units) (AtheNA, Ab 6.25 ug/ml): 15
AtheNA signal (relative luminescence units) (Centromere B [5]): 233
AtheNA signal (relative luminescence units) (Jo-1 [12]): 19
AtheNA signal (relative luminescence units) (Centromere B [6]): 208
AtheNA signal (relative luminescence units) (Jo-1 [13]): 7
AtheNA signal (relative luminescence units) (AtheNA, Ab 50 ug/ml): 207

B7: CH493 (antibody, V domains shown)
VH: QVRLLQYGGGVKRPGASMTISCVASGYNFNDYYIHWVRQAPGQGLELMGWIDPSGGRTDYAGAFGDRVSMYRDKSMNTLYMDLRSLRSGDTAMYYCVRNVGTAGSLLHYDHWGLGVMVTVSS
VL: EIVLTQSPATLSVSPGERVTLSCRASQSVRNNLAWYRQKRGQAPRLLIYGASTRATGIPARFSGSGSGTEFTLTISSMQSEDFAVYYCQQYNNWWTFGQGTKVEIK
AtheNA signal (Centromere B [9]): 94
AtheNA signal (Jo-1 [10]): 198
AtheNA signal (Centromere B [4]): 129
AtheNA signal (Jo-1 [11]): 167
AtheNA signal (Centromere B [5]): 165
AtheNA signal (Jo-1 [12]): 102
AtheNA signal (Centromere B [6]): 177
AtheNA signal (Jo-1 [13]): 54

B8: CH491 (antibody, V domains shown)
VH: QVQLVQSGAAVKRPGASVTISCRASGYTFTTYYIHWVRQAPGQGLELMGWINPRGGRTDYSYRFEDRVSMYRDTSMSIVYMDLRNLKSADTAVYYCVRNVGTSGSLLHYDFWGQGSLVTVSS
VL: EIVLTQSPATLSVSPGERVTLSCRASQSVRNNLAWYRQKRGQAPRLLIYGASTRATGIPARFSGSGSGTEFTLTISSMQSEDFAVYYCQQYNNWWTFGQGTKVEIK
AtheNA signal (Jo-1 [10]): 169
AtheNA signal (Jo-1 [11]): 118
AtheNA signal (AtheNA, Ab 25 ug/ml): 95
AtheNA signal (AtheNA, Ab 12.5 ug/ml): 60
AtheNA signal (AtheNA, Ab 6.25 ug/ml): 42
AtheNA signal (Jo-1 [12]): 79
AtheNA signal (Jo-1 [13]): 56
AtheNA signal (AtheNA, Ab 50 ug/ml): 144

B9: CH235.9 Fab (Fab, V domains shown)
VH: QVRLLQYGGGVKRPGASMTISCVASGYNFNDYYIHWVRQAPGQGLELMGWIDPSGGRTDYAGAFGDRVSMYRDKSMNTLYMDLRSLRSGDTAMYYCVRNVGTAGSLLHYDHWGLGVMVTVSS
VL: EIVLTQSPATLSVSPGERVTLSCRASQSVRNNLAWYRQKRGQAPRLLIYGASTRATGIPARFSGSGSGTEFTLTISSMQSEDFAVYYCQQYNNWWTFGQGTKVEIK
stoichiometry (Fabs per trimer) (Fabs per trimer) [7]: 3
stoichiometry (Fabs per trimer) (Fabs per trimer) [8]: 3
